The text below walks through data of patent US20140303084A1 (Biogen, published 2014).

Bridge positions count the residues as written; N and C are the ends. Square brackets hold non-standard residues; d marks the D form. Ends that are not written are not given here. NMeW = CN[C@@H](Cc1c[nH]c2ccccc12)C(=O)O; (PEG)4 = polyethylene glycol, 4 units; NMeY = CN[C@@H](Cc1ccc(O)cc1)C(=O)O; NMeF = CN[C@@H](Cc1ccccc1)C(=O)O; NMeL = CN[C@@H](CC(C)C)C(=O)O; Orn = NCCC[C@H](N)C(=O)O; Dab = NCC[C@H](N)C(=O)O; Dap = NC[C@H](N)C(=O)O Some results are limits rather than exact numbers.

To fix the notation:
B1: KLT-Orn-LASY-Glu-WLF-COOH (peptide)
peptide: KLT[Orn]LASYEWLF-OH
modifications: N-terminus assumed
SMILES: CC(C)C[C@H](NC(=O)[C@H](CCCN)NC(=O)[C@@H](NC(=O)[C@H](CC(C)C)NC(=O)[C@@H](N)CCCCN)[C@@H](C)O)C(=O)N[C@@H](C)C(=O)N[C@@H](CO)C(=O)N[C@@H](Cc1ccc(O)cc1)C(=O)N[C@@H](CCC(=O)O)C(=O)N[C@@H](Cc1c[nH]c2ccccc12)C(=O)N[C@@H](CC(C)C)C(=O)N[C@@H](Cc1ccccc1)C(=O)O
B2: KLTCLASYC-Nal-LF (peptide)
peptide: KLTCLASYC[Nal]LF
modifications: not fully specified; printed as KLTCLASYC-Nal-LF; cysteine pairing not given here
B3: Dpr-LTCLASYCWLF (peptide)
peptide: [Dap]LTCLASYCWLF
modifications: not fully specified; printed as Dpr-LTCLASYCWLF; cysteine pairing not given here
B4: KLTCLA-Dpr-YCWLF (peptide)
peptide: KLTCLA[Dap]YCWLF
modifications: not fully specified; printed as KLTCLA-Dpr-YCWLF; cysteine pairing not given here
B5: KLT-Orn-LASY-Glu-WLF-CONH2 (peptide)
peptide: KLT[Orn]LASYEWLF-NH2
modifications: N-terminus assumed
SMILES: CC(C)C[C@H](NC(=O)[C@H](CCCN)NC(=O)[C@@H](NC(=O)[C@H](CC(C)C)NC(=O)[C@@H](N)CCCCN)[C@@H](C)O)C(=O)N[C@@H](C)C(=O)N[C@@H](CO)C(=O)N[C@@H](Cc1ccc(O)cc1)C(=O)N[C@@H](CCC(=O)O)C(=O)N[C@@H](Cc1c[nH]c2ccccc12)C(=O)N[C@@H](CC(C)C)C(=O)N[C@@H](Cc1ccccc1)C(N)=O

The experiment concerns the target human Factor IXa (human, UniProt P00740 47-191; P00740 227-461). Description: cell-based or functional assay.
As for KLTCLASYCWLF (Lys(Me)2 1) [Lys(Me)2-LTCLASYCWLF], the “EC50 [µM], FXa generation assay” value is above 1 µM. As for B1, the “EC50 [µM], FXa generation assay” value is below 0.5 µM. On to KLTCLSSYCWLF, for which the “EC50 [µM], FXa generation assay” value was above 1 µM. Next, KLTALASYAWLF: above 5.8 µM; B2: below 0.5 µM; B3: above 1 µM. In the case of QLTCLASECGLS it was above 20 µM; in that of KLTCLKSYCWLF, above 1 µM. In the case of KLTCLGSYCWLF it was above 1 µM; in that of KLTCLATYCWLF, above 1 µM. For B4, the “EC50 [µM], FXa generation assay” value was above 20 µM.

KLTCLASYCWLF-OH (disulfide 4-9 (inferred)) [KLTCLASYCWLF-COOH]: the “EC50 [µM], FXa generation assay” value was above 1 µM. In the case of QLTCLASYCWLF it was above 20 µM.

With KLTCLAS[NMeY]CWLF (cysteine pairing not given here) [KLTCLAS-MeTyr-CWLF], the “EC50 [µM], FXa generation assay” value was above 20 µM. In the case of KLTCLXSYCWLF (not fully specified; Dpr 6) [KLTCL-Dpr-SYCWLF] it was above 1 µM; in that of TCLASYCWLF, below 0.5 µM. Next, XLTCLASYCWLF (not fully specified; Orn 1) [Orn-LTCLASYCWLF]: below 0.5 µM. Next, KLTCLASYCW: above 10 µM; KLTCLXSYCWLF (not fully specified; Aib 6) [KLTCL-Aib-SYCWLF]: above 20 µM; KLTCKASYCWLF: above 1 µM.

On to KLTCLXSYCWLF (not fully specified; Abu 6) [KLTCL-Abu-SYCWLF], for which the “EC50 [µM], FXa generation assay” value is above 1 µM. Next, KLTCLASQCWLF: below 0.5 µM; KLTCLASYCWLF-{(PEG)4-NH2} (cysteine pairing not given here) [KLTCLASYCWLF-(PEG)4-CONH2]: above 1 µM.

Take KLTCLASYCWLK: the “EC50 [µM], FXa generation assay” value was above 100 µM. QQTCQASQCQLF: the “EC50 [µM], FXa generation assay” value is above 20 µM. Next, KLTCLAXYCWLF (not fully specified; HSe 7) [KLTCLA-HSe-YCWLF]: above 1 µM; KLTCLASYCWL[NMeF] (cysteine pairing not given here) [KLTCLASYCWL-MePhe]: above 1 µM.

As to B5, the “EC50 [µM], FXa generation assay” value is below 0.5 µM. Next, AQTRVARCCQLF: above 20 µM.

For KLTCLASYCWYF, the “EC50 [µM], FXa generation assay” value is below 0.5 µM. Next, KLTELASY[Dap]WLF (not fully specified; printed as KLT-Glu-LASY-Dap-WLF) [KLT-Glu-LASY-Dap-WLF]: below 0.5 µM; KLTCLASYC[NMeW]LF (cysteine pairing not given here) [KLTCLASYC-MeTrp-LF]: above 20 µM; KLT[Dap]LASYEWLF (not fully specified; printed as KLT-Dap-LASY-Glu-WLF) [KLT-Dap-LASY-Glu-WLF]: below 0.5 µM. In the case of KLTSLASYSWLF it was above 15 µM. In the case of KKTCVASFCQMI it was above 5 µM; in that of KLTKLASYEWLF [KLT-Lys-LASY-Glu-WLF], below 0.5 µM; in that of KLTCLASKCWLF, above 100 µM. As to Ac-KLTCLASYCWLF (not fully specified; cysteine pairing not given here) [Ac-KLTCLASYCWLF], the “EC50 [µM], FXa generation assay” value was above 1 µM.

Turning to KLTCLASYCW[NMeL]F (cysteine pairing not given here) [KLTCLASYCW-MeLeu-F], the “EC50 [µM], FXa generation assay” value is above 1 µM.

Consider {(PEG)27-(PEG)27}-KLTCLASYCWLF (cysteine pairing not given here) [(PEG)27(PEG)27-KLTCLASYCWLF], for which the “EC50 [µM], FXa generation assay” value was above 1 µM. Next, KLTELASY[Orn]WLF (not fully specified; printed as KLT-Glu-LASY-Orn-WLF) [KLT-Glu-LASY-Orn-WLF]: below 0.5 µM.

As for KLTCQASYCWLF, the “EC50 [µM], FXa generation assay” value is above 1 µM. Regarding KLTCLASYCWLF (Lys(Me3CI) 1) [Lys(Me3CI)-LTCLASYCWLF], the “EC50 [µM], FXa generation assay” value is above 1 µM.

For KLTCLASYC, the “EC50 [µM], FXa generation assay” value is above 1 µM. Take {(PEG)27}-KLTCLASYCWLF (cysteine pairing not given here) [(PEG)27-KLTCLASYCWLF]: the “EC50 [µM], FXa generation assay” value is above 1 µM. In the case of KKTCLASYCWLF it was above 50 µM; in that of NPTCQASYCQLF, above 20 µM. Next, KLTCLASYXWLF (not fully specified; Pen 9) [KLTCLASY-Pen-WLF]: above 20 µM; KLTCLASYCWXF (not fully specified; Nle 11) [KLTCLASYCW-Nle-F]: below 0.5 µM.

As for KLTXLASYCWLF (not fully specified; Pen 4) [KLT-Pen-LASYCWLF], the “EC50 [µM], FXa generation assay” value was above 20 µM.

Take CLASYCWLF: the “EC50 [µM], FXa generation assay” value was above 20 µM. Next, KLTELASY[Dab]WLF (not fully specified; printed as KLT-Glu-LASY-Dab-WLF) [KLT-Glu-LASY-Dab-WLF]: above 1 µM.
